B1: human connexin36 (Cx36) (other, UniProt Q9UKL4 1-321, looked up)
chain: MGEWTILERLLEAAVQQHSTMIGRILLTVVVIFRILIVAIVGETVYDDEQTMFVCNTLQPGCNQACYDRAFPISHIRYWVFQIIMVCTPSLCFITYSVHQSAKQRERRYSTVFLALDRDPPESIGGPGGTGGGGSGGGKREDKKLQNAIVNGVLQNTENTSKETEPDCLEVKELTPHPSGLRTASKSKLRRQEGISRFYIIQVVFRNALEIGFLVGQYFLYGFSVPGLYECNRYPCIKEVECYVSRPTEKTVFLVFMFAVSGICVVLNLAELNHLGWRKIKLAVRGAQAKRKSIYEIRNKDLPRVSVPNFGRTQSSDSAYV
notes: whole, on cells; Hemichannel expressed in HEK 293FT cells for FETCH; also called GJD2; not shown: C-terminal fluorescent protein fusion (mEmerald or RFP670 in FETCH)

The target of one data set is T1, human connexin45 (Cx45) (human, UniProt P36383 1-396).
T1 construct: whole, on cells; Hemichannel expressed in HEK 293FT cells for FETCH; non-docking benchmark partner of Cx36; also called GJC1; not shown: C-terminal fluorescent protein fusion (mEmerald or RFP670 in FETCH)
T1 sequence (P36383 whole entry, the tested form may be a part): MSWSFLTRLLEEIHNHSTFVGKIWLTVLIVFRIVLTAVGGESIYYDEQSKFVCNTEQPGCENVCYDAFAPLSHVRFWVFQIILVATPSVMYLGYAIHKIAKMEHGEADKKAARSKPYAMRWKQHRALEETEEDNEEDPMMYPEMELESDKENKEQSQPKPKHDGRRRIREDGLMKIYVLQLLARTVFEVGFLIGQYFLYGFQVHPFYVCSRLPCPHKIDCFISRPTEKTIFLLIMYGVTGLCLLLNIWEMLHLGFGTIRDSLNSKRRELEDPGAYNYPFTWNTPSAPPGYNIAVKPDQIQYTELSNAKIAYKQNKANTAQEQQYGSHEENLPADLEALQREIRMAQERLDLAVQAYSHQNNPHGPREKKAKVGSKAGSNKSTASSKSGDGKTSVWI
Nature of the data set: FETCH (flow cytometry of co-plated HEK 293FT cells), benchmark pair. As for the experimental part: (§1) Complete FETCH methodology is outlined in Ransey et. al. 2021 (Ransey E, et al. (2021) BioRxiv). Briefly, replica multi-well plates with HEK 293FT cells were transfected with either of the two connexin proteins being evaluated for docking. Following a transfection incubation period, experimental counterparts were combined, replated, and further incubated for about 20 hr to about 24 hrs, allowing cells to make contacts and potentially generate connexosomes. Co-plated samples were trypsinized, fixed in suspension and analyzed via flow cytometry. Flow cytometry data was processed with two selection gates prior to their fluorescence evaluation. First, putative HEK cells were identified by evaluating sample forward vs. side scatter area. Next, single cells were identified as the putative cells that maintained a linear correlation of forward scatter height to forward scatter area. Finally, the dual fluorescence (mEmerald vs. RFP670) profiles of each sample was generated, and the FETCH score was defined as the proportion of dual-labeled fluorescent cells that develop in a co-plated sample.
For screening analysis, five FETCH replicates were obtained for each condition (mutation). […] To quantitatively determine whether a connexin pair docked, FETCH scores were determined for the dual fluorescence of cells under conditions where docking was not anticipated. […]
For orientation: In flow cytometry, cells or beads pass a laser one at a time.

Data set [1] deals with T2, Wild-type Connexin35 (Cx35) of Morone americana (Morone americana).
T2 construct: Connexin hemichannel (hexamer) expressed in HEK 293FT cells; In C. elegans it was expressed as GFP or mCherry fusion; also called Cx35WT; not shown: C-terminal fluorescent protein fusion (mEmerald or RFP670 in FETCH)
T2 chain: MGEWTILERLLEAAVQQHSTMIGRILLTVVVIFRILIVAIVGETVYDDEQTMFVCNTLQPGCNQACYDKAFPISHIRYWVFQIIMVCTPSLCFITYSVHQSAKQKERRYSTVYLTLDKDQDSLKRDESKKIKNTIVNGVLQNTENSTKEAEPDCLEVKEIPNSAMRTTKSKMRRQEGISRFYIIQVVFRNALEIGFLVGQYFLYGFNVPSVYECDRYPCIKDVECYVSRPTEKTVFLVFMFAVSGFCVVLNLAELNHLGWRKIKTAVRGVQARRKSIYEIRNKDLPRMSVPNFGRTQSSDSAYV
The experiment in a line: heterotypic FETCH. As for the experimental part: as §1

In data set [2] the target is B1. The experiment in a line: FETCH (flow cytometry, % dual-labelled HEK 293FT cells), heterotypic. On the procedure: as §1
The target in data set [3] is T3, human connexin43 (Cx43) (human, UniProt P17302 2-382).
T3 construct: whole, on cells; Hemichannel expressed in HEK 293FT cells for FETCH; also called GJA1; not shown: C-terminal fluorescent protein fusion (mEmerald or RFP670 in FETCH)
T3 sequence (P17302 2-382): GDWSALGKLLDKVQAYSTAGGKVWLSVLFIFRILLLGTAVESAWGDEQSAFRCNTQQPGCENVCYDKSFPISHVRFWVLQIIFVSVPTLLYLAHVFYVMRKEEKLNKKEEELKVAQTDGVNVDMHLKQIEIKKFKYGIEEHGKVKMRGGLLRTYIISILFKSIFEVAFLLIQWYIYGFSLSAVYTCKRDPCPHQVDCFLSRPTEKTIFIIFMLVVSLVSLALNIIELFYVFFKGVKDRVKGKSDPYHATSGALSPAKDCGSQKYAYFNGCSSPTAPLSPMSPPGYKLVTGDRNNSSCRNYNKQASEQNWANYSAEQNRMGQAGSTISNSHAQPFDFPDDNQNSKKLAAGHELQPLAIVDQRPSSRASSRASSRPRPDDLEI
The experiment in a line: heterotypic FETCH. On the procedure:
as §1

The data set “homotypic FETCH screen” concerns the molecule itself. The experiment in a line: homotypic FETCH screen. As for the experimental part:
as §1
(§2) For screening analysis, five FETCH replicates were obtained for each condition (mutation). These scores were benchmarked against scores for Cx36 and Cx45 (FETCH=1.2±0.1%, n=54 replicates). To quantitatively determine whether a connexin pair docked, FETCH scores were determined for the dual fluorescence of cells under conditions where docking was not anticipated. These conditions included pairs of connexins previously established to not show docking: (i) Cx36 and Cx45 (FETCH=0.7±0.0%, n=59 replicates), (ii) homotypic Cx23 (FETCH=0.9±0.4%, n=6 previously collected replicates (Ransey E, et al. (2021) BioRxiv), and (iii) Cx36 and Cx43 (FETCH=1.2±0.2%, n=10 previously collected replicates (Ransey E, et al. (2021) BioRxiv), and under conditions for which cells were transfected with cytoplasmic fluorophores rather than tagged connexins (FETCH=4.4±0.6%, n=17 previously collected replicates (Ransey E, et al. (2021) BioRxiv).

Data set [4] concerns the molecule itself. The experiment in a line: FETCH (flow cytometry, % dual-labelled HEK 293FT cells), homotypic. On the procedure:
as §1

The target in data set [5] is T3, human connexin43 (Cx43). The experiment in a line: FETCH (flow cytometry, % dual-labelled HEK 293FT cells), heterotypic, n=6. As for the experimental part: as §1
For data set [6], the target named is T4, Cx35E224H (Morone americana Cx35 mutant E224H) (Morone americana).
T4 construct: Extracellular loop mutant of the screening library; not shown: C-terminal fluorescent protein fusion (mEmerald or RFP670 in FETCH)
T4 chain: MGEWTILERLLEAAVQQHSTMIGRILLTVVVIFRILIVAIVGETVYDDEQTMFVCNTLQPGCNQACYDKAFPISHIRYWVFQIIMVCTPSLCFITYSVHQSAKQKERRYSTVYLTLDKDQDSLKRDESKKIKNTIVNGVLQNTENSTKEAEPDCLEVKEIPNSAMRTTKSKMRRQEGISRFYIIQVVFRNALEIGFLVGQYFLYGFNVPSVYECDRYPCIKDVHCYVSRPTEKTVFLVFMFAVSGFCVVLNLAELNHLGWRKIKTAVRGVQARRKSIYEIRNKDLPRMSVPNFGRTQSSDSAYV
Nature of the data set: heterotypic FETCH; score higher than for the wild type Cx34.7WT/Cx35WT pair. As for the experimental part:
as §1, §2

The target in data set [7] is T5, Cx35E224K (Morone americana Cx35 mutant E224K) (Morone americana).
T5 construct: Extracellular loop mutant of the screening library; not shown: C-terminal fluorescent protein fusion (mEmerald or RFP670 in FETCH)
T5 chain: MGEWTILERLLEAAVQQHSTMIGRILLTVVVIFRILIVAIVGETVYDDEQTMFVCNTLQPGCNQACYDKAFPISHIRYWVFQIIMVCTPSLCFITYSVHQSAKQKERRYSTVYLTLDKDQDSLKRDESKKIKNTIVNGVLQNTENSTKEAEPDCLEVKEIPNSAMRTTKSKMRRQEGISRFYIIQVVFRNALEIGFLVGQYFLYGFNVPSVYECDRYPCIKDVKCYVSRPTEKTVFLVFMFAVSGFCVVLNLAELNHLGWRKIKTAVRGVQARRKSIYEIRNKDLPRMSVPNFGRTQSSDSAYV
Described as above. As for the experimental part: as §1, §2

Data set [8] deals with T6, Cx35E224R (Morone americana Cx35 mutant E224R) (Morone americana).
T6 construct: Extracellular loop mutant of the screening library; not shown: C-terminal fluorescent protein fusion (mEmerald or RFP670 in FETCH)
T6 chain: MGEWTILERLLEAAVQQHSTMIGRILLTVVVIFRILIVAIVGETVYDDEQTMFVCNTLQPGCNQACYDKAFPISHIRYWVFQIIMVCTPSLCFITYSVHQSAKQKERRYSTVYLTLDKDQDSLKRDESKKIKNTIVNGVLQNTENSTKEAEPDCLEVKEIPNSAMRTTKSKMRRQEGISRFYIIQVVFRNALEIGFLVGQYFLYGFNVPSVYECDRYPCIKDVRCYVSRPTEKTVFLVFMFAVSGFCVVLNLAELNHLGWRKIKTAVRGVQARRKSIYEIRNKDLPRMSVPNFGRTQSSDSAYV
The data set is described as above. On the procedure:
as §1, §2

The data set “homotypic FETCH” concerns the molecule itself. The experiment in a line: homotypic FETCH. On the procedure:
as §1

The target of data set [9] is B1. The experiment in a line: heterotypic FETCH. On the procedure:
as §1

Data set [10] deals with T7, Cx35K221E (designer connexin Cx35M1, Morone americana Cx35 with K221E) (Morone americana).
T7 construct: Rationally designed hemichannel; In C. elegans expressed as GFP or mCherry fusion; in mice from AAV9 as mApple or mEmerald fusion; not shown: C-terminal fluorescent protein fusion (mEmerald or RFP670 in FETCH)
T7 chain: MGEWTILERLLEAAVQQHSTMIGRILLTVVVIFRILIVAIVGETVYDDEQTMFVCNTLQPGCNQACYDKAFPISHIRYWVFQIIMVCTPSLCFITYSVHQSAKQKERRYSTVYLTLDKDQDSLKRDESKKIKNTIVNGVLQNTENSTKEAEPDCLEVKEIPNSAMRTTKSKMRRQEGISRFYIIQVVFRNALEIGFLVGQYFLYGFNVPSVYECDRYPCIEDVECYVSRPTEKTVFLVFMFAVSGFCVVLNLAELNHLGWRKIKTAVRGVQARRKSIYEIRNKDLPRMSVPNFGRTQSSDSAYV
The experiment in a line: FETCH (flow cytometry, % dual-labelled HEK 293FT cells), heterotypic. As for the experimental part: as §1

Data set [11] concerns the target T3, human connexin43 (Cx43). The data set is described as above. On the procedure: as §1

The values below come from patent US20250186620A1 (DUKE UNIVERSITY, published 2025).

For B1, the binding result with human connexin45 (Cx45) is on record as “no binding”.

B2: Wild-type Connexin34.7 (Cx34.7) of Morone americana (other)
chain: MGEWTILERLLEAAVQQHSTMIGRILLTVVVIFRILIVAIVGETVYEDEQAMFICNTLQPGCNQACYDKAFPISHIRYWVFQIILVCTPSLCFITYSVHQSAKQKDRRYSFLYPIMERDYGGRDGARKLRNINGILVQHGGDGGGGKEEPDCLEVKEIPNAPRGLTHGKSSKVRRQEGISRFYIIQVVFRNALEIGFLAGQYFLYGFSVPGIFECDRYPCLKEVECYVSRPTEKTVFLVFMFAVSGICVVLNLAELNHLGWRKIKAAIRGVQARRKSICEIRKKDMAHLSQPPNLGRTQSSESAYV
notes: In C. elegans it was expressed as GFP or mCherry fusion; also called Cx34.7WT; not shown: C-terminal fluorescent protein fusion (mEmerald or RFP670 in FETCH)
For B2, the binding result in [1] is on record as “binds”. This molecule displayed an FETCH score with human connexin36 (Cx36) [2] of 11.9%.

B3: Cx34.7K222Q (Morone americana Cx34.7 mutant K222Q) (other)
chain: MGEWTILERLLEAAVQQHSTMIGRILLTVVVIFRILIVAIVGETVYEDEQAMFICNTLQPGCNQACYDKAFPISHIRYWVFQIILVCTPSLCFITYSVHQSAKQKDRRYSFLYPIMERDYGGRDGARKLRNINGILVQHGGDGGGGKEEPDCLEVKEIPNAPRGLTHGKSSKVRRQEGISRFYIIQVVFRNALEIGFLAGQYFLYGFSVPGIFECDRYPCLQEVECYVSRPTEKTVFLVFMFAVSGICVVLNLAELNHLGWRKIKAAIRGVQARRKSICEIRKKDMAHLSQPPNLGRTQSSESAYV
notes: Extracellular loop mutant of the screening library; not shown: C-terminal fluorescent protein fusion (mEmerald or RFP670 in FETCH)
For the molecule B3, the binding result with human connexin43 (Cx43) [3] was “no binding”; in the data set “homotypic FETCH screen” it was “no binding”; in [6] it was “binds”; in data set [7] it was “binds”; in data set [8] it was “binds”. Also, the FETCH score in data set [4] amounted to 0.4%; in the data set with human connexin36 (Cx36) [2], 22.8%; with human connexin43 (Cx43) [5] it was 1.3%.

B4: Cx34.7E214K/E223K (designer connexin Cx34.7M1, Morone americana Cx34.7 with E214K and E223K) (other)
chain: MGEWTILERLLEAAVQQHSTMIGRILLTVVVIFRILIVAIVGETVYEDEQAMFICNTLQPGCNQACYDKAFPISHIRYWVFQIILVCTPSLCFITYSVHQSAKQKDRRYSFLYPIMERDYGGRDGARKLRNINGILVQHGGDGGGGKEEPDCLEVKEIPNAPRGLTHGKSSKVRRQEGISRFYIIQVVFRNALEIGFLAGQYFLYGFSVPGIFKCDRYPCLKKVECYVSRPTEKTVFLVFMFAVSGICVVLNLAELNHLGWRKIKAAIRGVQARRKSICEIRKKDMAHLSQPPNLGRTQSSESAYV
notes: Rationally designed hemichannel; In C. elegans expressed as GFP or mCherry fusion; in mice from AAV9 as mEmerald or mApple fusion; not shown: C-terminal fluorescent protein fusion (mEmerald or RFP670 in FETCH)
As for B4, the binding result in “homotypic FETCH”, in the data set with human connexin36 (Cx36) [9] and with human connexin43 (Cx43) [3] was “no binding” throughout. Besides, the FETCH score in data set [4] was determined as 1.1%; in [10] it was 35.7%; with human connexin36 (Cx36) [2] it was 1%; with human connexin43 (Cx43) [11], 0.9%.
